In this test the target is T1, recombinant P. falciparum 3D7 MSP1 (p19 fragment) (Plasmodium falciparum (3D7)).
T1 construct: merozoite surface protein 1 of P. falciparum 3D7, the 19 kDa C-terminal fragment (MSP1-19, p19); Coated on ELISA plates and used in solution in the BLI without avidity; The ELISA methods say only 'recombinant P. falciparum MSP1'; also called MSP1-19; merozoite surface protein 1 (the 1-19 fragment)
T1 chain: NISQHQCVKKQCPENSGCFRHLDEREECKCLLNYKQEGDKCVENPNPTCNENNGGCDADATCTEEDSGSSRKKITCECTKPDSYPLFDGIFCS
Nature of the test: ELISA; plates coated with recombinant MSP1, AMA1 or OVA (each 5 µg/ml in PBS); purified recombinant antibodies at a maximum of 5-50 nM with 10-fold serial dilutions, 2 h room temperature or overnight 4°C; HRP anti-human IgG1. To be noted: both partners purified. A general note: ELISA stands for enzyme-linked immunosorbent assay.

B1: MaliM03 m-IgG (antibody, V domains shown)
VH: QVQLQQWGAGLLKPSETLSLTCAVYGGSFSGYYWTWIRQPPGKGLEWIGEINNSGKTNYNPSLKSRVSISIDTSKNQFSLKVTSVTAADTAVYYCARGPQQHLEPPFDYWGHGTLVTVSS
VL: QSVLTQPPSASGTPGQRVTISCSGSNSNIATNYVCWYQQYPGTAPKPLIYRTDQRPSGVPDRFSGSKSGTSASLAISGLRSEDEADYYCATWDDSLSAWVFGGGTKLTVL
notes: VH of MaliM03, as the VH of m1; immunoglobulin gamma-1 heavy chain constant region (vector AbVec-hIgG1) with L309C; human IgM tail piece, 18 amino acids, added to the IgG constant region; as the light chain of m1; Self-assembles into multimers (negative-stain EM); also called multimeric IgG; modified IgG antibody; source: 293T cells, transient transfection, purified from supernatant (HiTrap …)
Regarding B1, the “fold better binding than its monomeric form” value was ~10 fold.

Source of the values: publication PMC7938364, “Multimeric antibodies from antigen-specific human IgM^+ memory B cells restrict Plasmodium parasites” (The Journal of Experimental Medicine, 2021).
